Experimental data taken from PMC8760278.
pKd: −log10 of the molar value.

Key:
[1] = target: monomeric properdin lacking TSR domains 2 and 3 (FPΔ2,3) (human) (UniProt P27918); test: MST; RED-NHS labelled FPΔ2,3 constant at 50 nM, CirpA1 2 nM to 64 uM; PBS, 0.05% Tween-20, pH 7.4; Monolith NT.115
[2] = target: properdin from human serum (human) (UniProt P27918)
[3] = target: properdin from human serum (human) (UniProt P27918); remark: listed apart in the source
[4] = target: monomeric properdin lacking TSR domains 2 and 3 (FPΔ2,3) (human) (UniProt P27918); test: SEC-MALS; FPΔ2,3 with added CirpA1; S200 10/300 column in PBS, 100 uL at 1 mg/mL

UniProt P27918, sequence (P27918 28-469): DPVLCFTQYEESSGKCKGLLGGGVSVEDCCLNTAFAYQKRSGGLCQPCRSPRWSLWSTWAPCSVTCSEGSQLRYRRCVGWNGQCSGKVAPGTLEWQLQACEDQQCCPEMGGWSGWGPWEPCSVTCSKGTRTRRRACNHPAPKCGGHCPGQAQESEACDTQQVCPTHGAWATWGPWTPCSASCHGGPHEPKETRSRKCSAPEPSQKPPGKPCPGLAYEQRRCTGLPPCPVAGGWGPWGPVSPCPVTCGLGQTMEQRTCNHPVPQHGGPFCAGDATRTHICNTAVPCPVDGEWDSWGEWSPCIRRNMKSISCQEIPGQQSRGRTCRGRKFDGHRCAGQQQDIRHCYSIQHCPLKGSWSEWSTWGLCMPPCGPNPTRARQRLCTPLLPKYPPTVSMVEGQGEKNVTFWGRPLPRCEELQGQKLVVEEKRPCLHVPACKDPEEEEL

“CirpA1, recombinant, preparation not stated for the experiment (natural protein)” gave a pKd [1] of 7.01, an inhibition of the alternative pathway (MAC formation), WIESLAB assay, human serum [2] of 13 nM and an AP haemolysis assay, human serum, rabbit erythrocytes; CirpA1 purified from insect cells [3] of 1.41e-08.
“CirpA1 (Complement inhibitor from R. pulchellus of the alternative pathway 1), refolded (natural protein)” gave a stoichiometry N [4] of 1.
Work on CirpA6 (natural protein) yielded an AP haemolysis assay, human serum, rabbit erythrocytes [3] of 1.4e-08.
